Values of other authors, collected in paper PMC10532679.

Legend:
PKA-C (Homo sapiens) [1] = target: PKA-C (Homo sapiens) (UniProt P17612)
PKA-C (Homo sapiens) [2] = target: PKA-C (Homo sapiens) (UniProt P17612); remark: listed apart in the source

Ki (PKA-C (Homo sapiens) [1]): < 1 nM
Kd (PKA-C (Homo sapiens) [2]): 0.1 nM
Substance: PKA-RII (from UniProt P13861)
